This test has as its target recombinant cynomolgus CD33 protein (NovoProtein) (cynomolgus). Description: ELISA, plate coated with recombinant CD33.

recombinant cynomolgus CD33 protein (NovoProtein) (cynomolgus), sequence (chain, as listed by the source limits assumed): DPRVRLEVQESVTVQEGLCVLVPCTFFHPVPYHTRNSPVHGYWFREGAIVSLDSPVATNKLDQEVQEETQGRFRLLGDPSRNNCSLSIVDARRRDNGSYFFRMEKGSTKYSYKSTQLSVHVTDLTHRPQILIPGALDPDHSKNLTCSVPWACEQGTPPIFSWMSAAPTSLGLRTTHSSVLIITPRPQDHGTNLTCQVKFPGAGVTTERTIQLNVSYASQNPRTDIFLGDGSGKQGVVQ

B1: anti-CD33 antibody 6C7H39 (antibody, V domains shown)
VH: EVQLVESGGGLVQPGGSLRLSCAASGFTFSEYDMLWVRQAPGKGLEWVGEIRLKSNNYVTNYAASVKGRFTISRDDTKNSVYLQMNSLKTEDTGVYYCTRAGYYVPFAYWGQGTLVTVSS
VL: QPVLTQSPSASASLGASVKLTCTLSSQHSTYTIEWYQQQPEKGPRYLMELKKEGSHSTGDGIPDRFSGSSSGAERYLTISSLQSEDEADYYCGVGVTIKEQFVYVFGGGTKLTVL
For B1, the Relative maximal binding (cyno/human) stood at 0.02.

B2: anti-CD33 antibody 6C7H32 (antibody, V domains shown)
VH: EVQLVESGGGLVQPGGSLRLSCAASGSTFSEYDMLWVRQAPGKGLEWVGEIRLKSNNYVTNYAASVKGRFTISRDDSKNSVYLQMNSLKTEDTGVYYCTRAGYYVPFAYWGQGTLVTVSS
VL: QLMLTQSPSASASLGASVKLTCTLSSQHSTYTIEWYQQQPGKGPRYLMELKKEGSHSTGDGIPDRFSGSSSGAERYLTISSLQSEDEADYYCGVGHTIKEQFVYEFGGGTKLTVL
Take B2: the Relative maximal binding (cyno/human) amounted to 0.01.

B3: anti-CD33 antibody 6C7H31 (antibody, V domains shown)
VH: EVQLVESGGGLVQPGGSLRLSCAASGSTFSEYDMLWVRQAPGKGLEWVGEIRLKSNNYVTNYAASVKGRFTISRDDSKNSVYLQMNSLKTEDTGVYYCTRAGYYVPFAYWGQGTLVTVSS
VL: QPVLTQSPSASASLGASVKLTCTLSSQHSTYTIEWYQQQPEKGPRYLMELKKEGSHSTGDGIPDRFSGSSSGAERYLTISSLQSEDEADYYCGVGVTIKEQFVYVFGGGTKLTVL
As for B3, the Relative maximal binding (cyno/human) was found to be 0.02.

B4: anti-CD33 antibody 6C7H35 (antibody, V domains shown)
VH: EVQLVESGGGLVQPGGSLRLSCAASGFTFSEYAMLWVRQAPGKGLEWVGEIRLKSNNYVTNYAASVKGRFTISRDDSKNSVYLQMNSLKTEDTGVYYCTRAGYYVPFTYWGQGTLVTVSS
VL: QPVLTQSPSASASLGASVKLTCTLSSQHSTYTIEWYQQQPEKGPRYLMELKKEGSHSTGDGIPDRFSGSSSGAERYLTISSLQSEDEADYYCGVGVTIKEQFVYVFGGGTKLTVL
As for B4, the Relative maximal binding (cyno/human) worked out at 0.04.

B5: anti-CD33 antibody 6C7H40 (antibody, V domains shown)
VH: EVQLVESGGGLVQPGGSLRLSCAASGFTFSEYDMLWVRQAPGKGLEWVGEIRLKSNNYVTNYAASVKGRFTISRDDTKNSVYLQMNSLKTEDTGVYYCTRAGYYVPFAYWGQGTLVTVSS
VL: QLMLTQSPSASASLGASVKLTCTLSSQHSTYTIEWYQQQPGKGPRYLMELKKEGSHSTGDGIPDRFSGSSSGAERYLTISSLQSEDEADYYCGVGHTIKEQFVYEFGGGTKLTVL
Turning to B5, the Relative maximal binding (cyno/human) is 0.03.

B6: anti-CD33 antibody 6C7H33 (antibody, V domains shown)
VH: EVQLVESGGGLVQPGGSLRLSCAASGSTFSEYDMLWVRQAPGKGLEWVGEIRLKSNNYVTNYAASVKGRFTISRDDSKNSVYLQMNSLKTEDTGVYYCTRAGYYVPFAYWGQGTLVTVSS
VL: QLMLTQSPSASASLGASVKLTCTLSSQHSTYTIEWYQQQPGKGPRYLMELKKEGSHSTGDGIPDRFSGSSSGAERYLTISSLQSEDEADYYCGVGHTIKEQFVYVFGGGTKLTVL
On to B6, for which the Relative maximal binding (cyno/human) is 0.01.

B7: anti-CD33 antibody 6C7H34 (antibody, V domains shown)
VH: EVQLVESGGGLVQPGGSLRLSCAASGSTFSEYDMLWVRQAPGKGLEWVGEIRLKSNNYVTNYAASVKGRFTISRDDSKNSVYLQMNSLKTEDTGVYYCTRAGYYVPFAYWGQGTLVTVSS
VL: QPMLTQSPSASASLGASVKLTCTLSSQHSTYTIEWYQQQPGKGPRYLMELKKEGSHSTGDGIPDRFSGSSSGAERYLTISSLQSEDEADYYCGVGLTIKEQFVYVFGGGTKLTVL
As for B7, the Relative maximal binding (cyno/human) came to 0.01.
